Test results from paper PMC10901556, “Conservation of Affinity Rather Than Sequence Underlies a Dynamic Evolution of the Motif-Mediated p53/MDM2 Interaction in Ray-Finned Fishes” (Molecular Biology and Evolution, 2024).
Where no end group is shown, it is not given here.

Legend:
[1] = molecular target: MDM2 SWIB domain from Channa argus (Channa argus); assay: fluorescence polarisation; displacement: complex of MDM2 (0.2-2 μM) and FITC-p53TAD_(human)^15–26 (15 nM) displaced by increasing unlabeled p53TAD peptide or p53TAD^full-length; KD calculated from IC50 (Nikolovska-Coleska et al. 2004); 20 mM sodium phosphate pH 7.4, 150 mM NaCl, 1 mM TCEP
[2] = molecular target: MDM2_(H.sapiens) SWIB domain (Homo sapiens (human)); assay: as above
[3] = molecular target: MDM2 SWIB domain from Takifugu rubripes (Japanese puffer) (Takifugu rubripes (Japanese puffer)); assay: as above
[4] = molecular target: MDM2 SWIB domain from Oncorhynchus kisutch (coho salmon) (Oncorhynchus kisutch (coho salmon)); assay: as above
[5] = molecular target: MDM2 SWIB domain from Maylandia zebra (Maylandia zebra); assay: as above
[6] = molecular target: T1, MDM2_(D.rerio) SWIB domain (Danio rerio (zebrafish)); assay: FP; conditions: modification not given
T1 chain: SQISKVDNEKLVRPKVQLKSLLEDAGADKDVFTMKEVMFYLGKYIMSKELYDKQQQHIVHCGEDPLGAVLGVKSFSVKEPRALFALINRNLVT

[7] = molecular target: MDM2 SWIB domain from Anguilla anguilla (European eel) (Anguilla anguilla (European eel)); assay: fluorescence polarisation; displacement: complex of MDM2 (0.2-2 μM) and FITC-p53TAD_(human)^15–26 (15 nM) displaced by increasing unlabeled p53TAD peptide or p53TAD^full-length; KD calculated from IC50 (Nikolovska-Coleska et al. 2004); 20 mM sodium phosphate pH 7.4, 150 mM NaCl, 1 mM TCEP
[8] = molecular target: MDM2 SWIB domain from Clupea harengus (Atlantic herring) (Clupea harengus (Atlantic herring)); assay: as above
[9] = molecular target: MDM2 SWIB domain from Lepisosteus oculatus (spotted gar) (Lepisosteus oculatus (spotted gar)); assay: as above

For Ac-SQDSFRELWESVV [Channa argus p53TADP1 p53TAD^15–27], the Kd [1] was 3300 nM and the Kd [2] was 1100 nM.

Work on Ac-SQDTFQDLWENVA [Takifugu rubripes (Japanese puffer) p53TADP1 p53TAD^15–27] yielded a Kd [3] of 4500 nM and a Kd [2] of 1700 nM.

For Ac-SQGSFQQLWETNM [Oncorhynchus kisutch p53TADP1b p53TAD^15–27], the Kd [4] was 3500 nM and the Kd [2] was 5150 nM.

Work on Ac-SQDSFKELWDQLP [Maylandia zebra p53TADP1 p53TAD^15–27] yielded a Kd [5] of 1600 nM and a Kd [2] of 270 nM.

For IINDEEYLPGSFDPN [p53TAD_(D.rerio)^41-55], the Kd [6] was greater than 200000 nM.

GGSCWDIINDEEYLP [p53TAD_(D.rerio)^35-49] gave a Kd [6] greater than 200000 nM.

Work on ELWEKNLISIQPPGG [p53TAD_(D.rerio)^21-35] yielded a Kd [6] greater than 200000 nM.

Ac-SQEFAELWEKNL [Danio rerio (zebrafish) p53TADP2 p53TAD^15–27] showed a Kd [2] of 4330 nM.

Ac-GQCSFQQLWESNM [Oncorhynchus kisutch (coho salmon) p53TADP1a p53TAD^15–27] showed a Kd [4] of 2100 nM and a Kd [2] of 3150 nM.

Binder Ac-SQESFQELWKMMC [Anguilla anguilla (European eel) p53TADP1 p53TAD^15–27] has a Kd [7] of 190 nM and a Kd [2] of 13 nM.

IQPPGGGSCWDIIND [p53TAD_(D.rerio)^30-44] gave a Kd [6] greater than 200000 nM.

QNDSQEFAELWEKNLISIQPPGGGSCWDIINDEEYLPGSFDPN [p53TAD_(D.rerio)^12-55] showed a Kd [6] of 33 nM.

Ac-SQDETFQALWNTVT [Anguilla anguilla p53TADP2 p53TAD^15–27] showed a Kd [7] of 1200 nM and a Kd [2] of 770 nM.

PGSFDPNFFENVLEE [p53TAD_(D.rerio)^49-63] showed a Kd [6] of 210000 nM.

Ac-SQESFEDLWKMNL [Oncorhynchus kisutch p53TADP2 p53TAD^15–27] was tested, and the Kd [4] was 1160 nM and the Kd [2] was 790 nM.

Ac-SQGTFDEIWASNF [Clupea harengus (Atlantic herring) p53TADP1 p53TAD^15–27] showed a Kd [8] of 2600 nM and a Kd [2] of 1250 nM.

In the case of Ac-SQESFQELWNMVI [Lepisosteus oculatus (spotted gar) p53TAD^15–27], the Kd [9] is reported as 390 nM and the Kd [2] is reported as 121 nM.

DSQEFAELWEKN [p53TAD_(D.rerio)^14-26] was tested, and the Kd [6] was greater than 200000 nM.
